Results as given in US7252930 (Takeda / Millennium, dated 2007).

Molecular target: the molecule itself
Experiment: X-ray crystal structure, homodimer in the asymmetric unit

B1: MvaS (HMG-CoA Synthase) from Enterococcus faecalis, full length with non-cleavable carboxy-terminal six histidine tag, seleno-methionine labeled (enzyme)
chain: MTIGIDKISFFVPPYYIDMTALAEARNVDPGKFHIGIGQDQMAVNPISQDIVTFAANAAEAILTKEDKEAIDMVIVGTESSIDESKAAAVVLHRLMGIQPFARSFEIKEACYGATAGLQLAKNHVALHPDKKVLVVAADIAKYGLNSGGEPTQGAGAVAMLVASEPRILALKEDNVMLTQDIYDFWRPTGHPYPMVDGPLSNETYIQSFAQVWDEHKKRTGLDFADYDALAFHIPYTKMGKKALLAKISDQTEAEQERILARYEESIVYSRRVGNLYTGSLYLGLISLLENATTLTAGNQIGLFSYGSGAVAEFFTGELVAGYQNHLQKETHLALLDNRTELSIAEYEAMFAETLDTDIDQTLEDELKYSISAINNTVRSYRNKGHHHHHH
modifications: seleno-methionine in place of methionine (100% incorporation by MS); observed mass corresponds to protein without N-terminal methionine
notes: It was crystallized as a complex with the small molecule HMG-CoA; There are two MvaS molecules (A and B) in the asymmetric unit, described as a dimer; also called MvaS Ef
- binding result: binds
